Each block holds one binder with its values, some of them ahead of it.
Biological target: T1, FGFR4 expressed on cells (L6-FGFR4 myoblasts; ZR-75-1 breast cancer cells) (UniProt P22455 22-802, limits assumed)
T1 construct: whole, on cells; also called L6-FGFR4 cells; FGFR4-transfected L6 myoblasts
Test: FACS Scatchard on L6-FGFR4 cells, anti-rat-PE detection
Protocol: L6-FGFR4 cells were harvested by incubation with 10 mM EDTA in PBS and resuspended at 6 million cells per ml in FACS buffer (PBS pH 7.4, 3% FCS, 0.1% NaN₃). In a round-bottom microtiter plate, 100 μl of cell suspension were added to 100 μl of antibody solution containing antibodies 10F10 or 9A5 at concentrations between 31.25 and 0.01 μg/ml in FACS buffer. Antibody binding was allowed to proceed for 2 hours ice. Then, cells were washed twice with 250 μl FACS buffer per well, and resuspended in 200 μl of secondary antibody (anti-rat-PE; Jackson), diluted 1:50 in FACS buffer. After 45 minutes of incubation, cells were again washed twice in FACS buffer, then resuspended in […] of PBS for FACS analysis. Analysis was carried out on a Beckman-Coulter FACS. To determine the apparent affinity constant KDapp, mean fluorescence values were plotted against the ratio of mean fluorescence and the corresponding antibody contration ([M]). The calculated KDapp resulted from the inverse slope of the straight line (FIG. 2).

T1 sequence (P22455 22-802 limits assumed): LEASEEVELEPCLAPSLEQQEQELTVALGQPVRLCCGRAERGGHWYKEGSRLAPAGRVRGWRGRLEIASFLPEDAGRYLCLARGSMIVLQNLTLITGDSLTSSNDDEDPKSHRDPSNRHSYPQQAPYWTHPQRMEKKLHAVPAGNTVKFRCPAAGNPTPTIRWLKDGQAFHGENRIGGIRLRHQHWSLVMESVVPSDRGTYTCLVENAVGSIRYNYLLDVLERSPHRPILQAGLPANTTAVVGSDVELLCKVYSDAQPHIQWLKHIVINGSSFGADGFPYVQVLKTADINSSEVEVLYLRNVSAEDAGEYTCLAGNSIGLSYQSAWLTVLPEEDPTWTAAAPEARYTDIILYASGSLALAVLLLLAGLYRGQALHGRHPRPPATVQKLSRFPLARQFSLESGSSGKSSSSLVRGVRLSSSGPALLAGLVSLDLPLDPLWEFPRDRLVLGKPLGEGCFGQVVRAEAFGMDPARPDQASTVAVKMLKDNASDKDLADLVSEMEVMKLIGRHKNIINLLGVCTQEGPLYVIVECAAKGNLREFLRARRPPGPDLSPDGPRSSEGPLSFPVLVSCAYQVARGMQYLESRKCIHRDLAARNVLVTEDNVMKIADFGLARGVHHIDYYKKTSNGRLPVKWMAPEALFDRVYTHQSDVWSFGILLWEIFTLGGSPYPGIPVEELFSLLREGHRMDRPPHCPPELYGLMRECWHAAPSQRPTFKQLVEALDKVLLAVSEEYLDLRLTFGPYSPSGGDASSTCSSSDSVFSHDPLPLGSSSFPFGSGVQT

binding result: binds
B1: anti-FGFR4 antibody 10F10 (antibody, V domains shown)
VH: EVQLKESGPGLVQPSQTLSLTCTVSGFSLTDYSVHWVRQPPGKGLEWMGVVWSSGSTAYNSALKSRLRITRDTSKSQAFLKMNSLQTEDTAIYYCTRPRYSSWFVYWGQGTLVTVSS
VL: DTVLTQSPALAVSLGQRVTISCRASKSVSTFIHWYQQKSGQQPKLLIYSASNTESGPSRFSGSGSGTDFTLTIDPVEADDIANYYCQQSNELPWTFGGGTKLELKR
notes: Rat monoclonal antibody from a hybridoma (rats immunised with FGFR4-ECD-GST)

binding result: binds
B2: anti-FGFR4 antibody 9A5 (antibody, V domains shown)
VH: QVQLRESGPGLVQPSQTLSLTCTVSGFSLTFYHVSWVRQPPGKGLEWMGVIWTGGSTTYNSLLKSRLTISRDTSKSQVFLKMNSLQTEDTATYYCARGGGDRGYFAFWGPGTMVTVSS
VL: NTVMTQSPTSMFTSVGDRVTMSCKASQNVGINVGWYQQKTGQSPKRLIYWASNRDTGVPDRFTGSGSGTDFTLTISNMQAEDPAIYYCLQHNSYPWTFGGGTKLELKR
notes: Rat monoclonal antibody from a hybridoma
